Here are results for 36 molecules from publication PMC10786891, “Massively parallel profiling of RNA-targeting CRISPR-Cas13d”.

To fix the notation:
T1: EsCas13d, nuclease-dead (Eubacterium siraeum, UniProt B0MS50, R295A;H300A;R849A;H854A)
T1 sequence: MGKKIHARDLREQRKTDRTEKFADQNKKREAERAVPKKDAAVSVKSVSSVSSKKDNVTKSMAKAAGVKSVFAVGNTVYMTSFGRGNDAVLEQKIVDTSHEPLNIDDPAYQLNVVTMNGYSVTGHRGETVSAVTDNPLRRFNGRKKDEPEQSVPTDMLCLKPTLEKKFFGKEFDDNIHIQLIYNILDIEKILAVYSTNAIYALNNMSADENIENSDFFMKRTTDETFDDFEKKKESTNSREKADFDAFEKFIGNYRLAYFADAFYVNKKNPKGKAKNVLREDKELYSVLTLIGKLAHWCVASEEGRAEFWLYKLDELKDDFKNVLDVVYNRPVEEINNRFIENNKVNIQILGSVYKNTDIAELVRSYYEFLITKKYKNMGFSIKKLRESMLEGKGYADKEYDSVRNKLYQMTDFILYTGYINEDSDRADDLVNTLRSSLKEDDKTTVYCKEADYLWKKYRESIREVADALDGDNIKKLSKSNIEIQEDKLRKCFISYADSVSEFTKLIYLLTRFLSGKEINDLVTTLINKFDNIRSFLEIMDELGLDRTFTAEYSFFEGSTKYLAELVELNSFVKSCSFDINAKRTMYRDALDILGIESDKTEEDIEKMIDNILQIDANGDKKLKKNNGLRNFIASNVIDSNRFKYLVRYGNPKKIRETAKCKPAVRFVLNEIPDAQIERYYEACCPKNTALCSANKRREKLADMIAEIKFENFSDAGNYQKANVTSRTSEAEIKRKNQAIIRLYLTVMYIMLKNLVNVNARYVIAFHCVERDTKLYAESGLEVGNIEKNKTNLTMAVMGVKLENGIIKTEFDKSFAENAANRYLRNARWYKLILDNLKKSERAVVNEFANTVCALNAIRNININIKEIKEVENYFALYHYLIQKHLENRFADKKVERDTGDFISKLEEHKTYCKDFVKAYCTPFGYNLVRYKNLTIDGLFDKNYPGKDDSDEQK

B1: target 1 U3G,G17C (mixed)
RNA 1: CACCCGUGCAAAAAUGCAGGGGUCUAAAACUGAGCGGAUAACCUCUCUAUGG
RNA 2: GGGAAUGGAUCCACAUCUACGAAUUCGUACCAUACAGAGGUUAUCCGCGCACCGAGAUCGGAAGAGCACACGU
B2: target 1 C2U,U10A (mixed)
RNA 1: B1 RNA 1
RNA 2: B1 RNA 2 with C35G, U42A, G49U, C50U
B3: target 1 G13U,A16C (mixed)
RNA 1: B1 RNA 1
RNA 2: B1 RNA 2 with C35G, A36C, G39U, G49U
B4: target 2 MT 5'PFS UGA 3'PFS UAC (mixed)
RNA 1: CACCCGUGCAAAAUUGCAGGGGUCUAAAACCUUCUCCAAAUUGUUUCAUCCU
RNA 2: GGGAAUGGAUCCACAUCUACGAAUUCUGAAGGAUGAAACAAUUUGGAGAAGUACAGAUCGGAAGAGCACACGU
B5: target 2 MT 5'PFS ACU 3'PFS AGC (mixed)
RNA 1: B4 RNA 1
RNA 2: B4 RNA 2 with U27A, G28C, A29U, U52A, A53G
B6: target 2 MT 5'PFS GUG 3'PFS UAC (mixed)
RNA 1: B4 RNA 1
RNA 2: B4 RNA 2 with U27G, G28U, A29G
B7: target 2 MT 5'PFS UAG 3'PFS UUC (mixed)
RNA 1: B4 RNA 1
RNA 2: B4 RNA 2 with G28A, A29G, A53U
B8: target 2 MT 5'PFS AUU 3'PFS CUU (mixed)
RNA 1: B4 RNA 1
RNA 2: B4 RNA 2 with U27A, G28U, A29U, U52C, A53U, C54U
B9: target 2 MT 5'PFS CUG 3'PFS AAC (mixed)
RNA 1: B4 RNA 1
RNA 2: B4 RNA 2 with U27C, G28U, A29G, U52A
B10: target 2 MT 5'PFS GGC 3'PFS UAG (mixed)
RNA 1: B4 RNA 1
RNA 2: B4 RNA 2 with U27G, A29C, C54G
B11: target 2 MT 5'PFS UCU 3'PFS CUA (mixed)
RNA 1: B4 RNA 1
RNA 2: B4 RNA 2 with G28C, A29U, U52C, A53U, C54A
B12: target 2 MT 5'PFS UCU 3'PFS CUC (mixed)
RNA 1: B4 RNA 1
RNA 2: B4 RNA 2 with G28C, A29U, U52C, A53U
B13: target 2 MT 5'PFS ACU 3'PFS AGG (mixed)
RNA 1: B4 RNA 1
RNA 2: B4 RNA 2 with U27A, G28C, A29U, U52A, A53G, C54G
B14: target 2 MT 5'PFS UUC 3'PFS UCC (mixed)
RNA 1: B4 RNA 1
RNA 2: B4 RNA 2 with G28U, A29C, A53C
B15: target 2 MT 5'PFS AUG 3'PFS AGA (mixed)
RNA 1: B4 RNA 1
RNA 2: B4 RNA 2 with U27A, G28U, A29G, U52A, A53G, C54A
B16: target 2 MT 5'PFS GUG 3'PFS UAA (mixed)
RNA 1: B4 RNA 1
RNA 2: B4 RNA 2 with U27G, G28U, A29G, C54A
B17: target 2 MT 5'PFS CUG 3'PFS AAA (mixed)
RNA 1: B4 RNA 1
RNA 2: B4 RNA 2 with U27C, G28U, A29G, U52A, C54A
B18: target 2 MT 5'PFS UCU 3'PFS CUU (mixed)
RNA 1: B4 RNA 1
RNA 2: B4 RNA 2 with G28C, A29U, U52C, A53U, C54U
B19: target 2 MT 5'PFS CGC 3'PFS AAG (mixed)
RNA 1: B4 RNA 1
RNA 2: B4 RNA 2 with U27C, A29C, U52A, C54G
B20: target 2 MT 5'PFS AUG 3'PFS AGU (mixed)
RNA 1: B4 RNA 1
RNA 2: B4 RNA 2 with U27A, G28U, A29G, U52A, A53G, C54U
B21: target 2 MT 5'PFS GUA 3'PFS AUA (mixed)
RNA 1: B4 RNA 1
RNA 2: B4 RNA 2 with U27G, G28U, U52A, A53U, C54A
B22: target 2 MT 5'PFS GCG 3'PFS AAC (mixed)
RNA 1: B4 RNA 1
RNA 2: B4 RNA 2 with U27G, G28C, A29G, U52A
B23: target 2 MT 5'PFS CGC 3'PFS AAA (mixed)
RNA 1: B4 RNA 1
RNA 2: B4 RNA 2 with U27C, A29C, U52A, C54A
B24: target 2 MT 5'PFS GCA 3'PFS ACC (mixed)
RNA 1: B4 RNA 1
RNA 2: B4 RNA 2 with U27G, G28C, U52A, A53C
B25: target 2 MT 5'PFS ACU 3'PFS AGA (mixed)
RNA 1: B4 RNA 1
RNA 2: B4 RNA 2 with U27A, G28C, A29U, U52A, A53G, C54A
B26: target 2 MT 5'PFS GCA 3'PFS ACU (mixed)
RNA 1: B4 RNA 1
RNA 2: B4 RNA 2 with U27G, G28C, U52A, A53C, C54U
B27: target 2 MT 5'PFS AAG 3'PFS UUA (mixed)
RNA 1: B4 RNA 1
RNA 2: B4 RNA 2 with U27A, G28A, A29G, A53U, C54A
B28: target 2 MT 5'PFS GAU 3'PFS CGU (mixed)
RNA 1: B4 RNA 1
RNA 2: B4 RNA 2 with U27G, G28A, A29U, U52C, A53G, C54U
B29: target 2 MT 5'PFS UGA 3'PFS UAA (mixed)
RNA 1: B4 RNA 1
RNA 2: B4 RNA 2 with C54A
B30: target 2 MT 5'PFS CGC 3'PFS AAC (mixed)
RNA 1: B4 RNA 1
RNA 2: B4 RNA 2 with U27C, A29C, U52A
B31: target 2 MT 5'PFS GCA 3'PFS ACG (mixed)
RNA 1: B4 RNA 1
RNA 2: B4 RNA 2 with U27G, G28C, U52A, A53C, C54G
B32: target 2 MT 5'PFS CUG 3'PFS AAG (mixed)
RNA 1: B4 RNA 1
RNA 2: B4 RNA 2 with U27C, G28U, A29G, U52A, C54G
B33: target 2 MT 5'PFS UAG 3'PFS UUA (mixed)
RNA 1: B4 RNA 1
RNA 2: B4 RNA 2 with G28A, A29G, A53U, C54A
B34: target 2 MT 5'PFS GUG 3'PFS UAU (mixed)
RNA 1: B4 RNA 1
RNA 2: B4 RNA 2 with U27G, G28U, A29G, C54U
B35: target 2 MT 5'PFS GCA 3'PFS ACA (mixed)
RNA 1: B4 RNA 1
RNA 2: B4 RNA 2 with U27G, G28C, U52A, A53C, C54A
B36: target 2 MT 5'PFS CUG 3'PFS AAU (mixed)
RNA 1: B4 RNA 1
RNA 2: B4 RNA 2 with U27C, G28U, A29G, U52A, C54U

Residue numbers refer to the chain shown, from its start. Names and notes keep the numbering of the source.

The series concerns the target T1, EsCas13d, nuclease-dead. The series can be described thus: crRNA (strand 1, pre-loaded); Mg2+; 40 mM Tris-HCl pH 7.5, 150 mM NaCl, 6 mM MgCl2, 1 mM DTT, 0.1% Tween-20, 0.2 mg/ml BSA; 25 C; 10 min per concentration, then washed. The settings on record: tags: His6-TwinStrep-SUMO cleaved; N-terminal SNAP kept (SNAP-Surface 488); label: 3' end held by stalled T7 RNA polymerase.
Take B1: the affinity, expressed as Kd, was 36.7 ± 2.8 nM.
Turning to B2, the Kd (in general, the free concentration of one partner at which half of the binding sites on the other are occupied at equilibrium, for simple one-to-one binding) came to 11.6 ± 1.4 nM. This Kd is about 3.2-fold lower than that of the molecule before.
As to B3, the Kd amounted to 68 ± 14 nM. This Kd lies about 5.9-fold higher than the previous one.
In the case of B4 it was 9.1 ± 1.6 nM; in that of B5, 3.18 ± 0.3 nM.
For the molecule B6, the Kd was found to be 15.1 ± 1.5 nM.
B7 returned a Kd of 7.2 ± 0.9 nM.
In the case of B8 it was 10 ± 1 nM; in that of B9, 3.4 ± 0.4 nM; in that of B10, 13.1 ± 2 nM.
B11 came in with a Kd of 20 ± 6 nM.
B12 yielded a Kd of 9.3 ± 1.6 nM.
In the case of B13, the Kd was found to be 4.5 ± 0.6 nM. This Kd is about 2.1-fold lower than that of the molecule before.
As for B14, the figure is 19.6 ± 3 nM; as for B15, 15 ± 5 nM; as for B16, 9 ± 0.7 nM.
Consider B17, for which the affinity, expressed as Kd, was 2.9 ± 0.32 nM. This Kd is about 3.1-fold lower than that of the molecule before.
For the molecule B18, the Kd came out at 14.1 ± 2.5 nM.
B19 returned a Kd of 4 ± 0.6 nM. This Kd lies about 3.5-fold lower than the previous one.
As for B20, binding was characterised by a dissociation constant (Kd) of 11.1 ± 1.6 nM.
B21: the Kd worked out at 6.1 ± 0.7 nM.
Molecule B22 had a Kd of 15 ± 4 nM. Against the preceding molecule, the Kd is about 2.5-fold higher.
B23: the Kd was 5.8 ± 1.6 nM.
The molecule B24 gave a Kd of approximately 36 nM.
B25 returned a Kd of 3.7 ± 0.5 nM.
As to B26, the affinity, expressed as Kd, was 13.2 ± 1.8 nM.
Regarding B27, the Kd came out at 6.8 ± 1.3 nM.
Turning to B28, binding was characterised by a dissociation constant (Kd) of 14.1 ± 2.6 nM.
Consider B29, for which the Kd is 6 ± 1.3 nM.
As for B30, the figure is 4.9 ± 0.5 nM; as for B31, 13.3 ± 2 nM; as for B32, 3 ± 0.4 nM.
B33 displayed a Kd of 8.1 ± 1.6 nM. Compared with the last molecule, the Kd is about 2.7-fold higher.
Consider B34, for which the Kd amounted to 9.5 ± 0.7 nM.
On to B35, for which the Kd was found to be 10.2 ± 1.7 nM.
B36: the Kd worked out at 3.6 ± 0.5 nM.
